B1: Nse2 (Mms21), subunit of the S. cerevisiae Smc5/6 holo-complex (natural protein)
chain: MALNDNPIPKSVPLHPKSGKYFHNLHARDLSNIYQQCYKQIDETINQLVDSTSPSTIGIEEQVADITSTYKLLSTYESESNSFDEHIKDLKKNFKQSSDACPQIDLSTWDKYRTGELTAPKLSELYLNMPTPEPATMVNNTDTLKILKVLPYIWNDPTCVIPDLQNPADEDDLQIEGGKIELTCPITCKPYEAPLISRKCNHVFDRDGIQNYLQGYTTRDCPQAACSQVVSMRDFVRDPIMELRCKIAKMKESQEQDKRSSQAIDVL
notes: Nse2 (Mms21), Saccharomyces cerevisiae; the model holds amino acids 1-267; source: recombinant, expressed in insect cells, purified as holo-complex (Superose 6 SEC), BS3-crosslinked
B2: Nse1, subunit of the S. cerevisiae Smc5/6 holo-complex (natural protein)
chain: MEVHEEQVSAPVTGDATAKYLLQYILSARGICHENALILALMRLETDASTLNTEWSIQQWVDKLNDYINAINVKLNLLGYKIIRINHGIGRNAVTLKAKQNFESFEDNTAIRAHNNDYAVLQSIVLPESNRFFVYVNLASTEETKLATRFNQNEIEFMKWAIEQFMISGETIVEGPALETSIIVKEVNRILVAATGDSNLAKWRKFSTFTVGSTNLFQFQELTATDIEDLLLRLCELKWFYRTQEGKFGIDLRCIAELEEYLTSMYNLNTCQNCHKLAIQGVRCGNESCREENEETGENSLSQIWHVDCFKHYITHVSKNCDRCGSSLITEGVYVI
notes: Nse1, Saccharomyces cerevisiae; the model holds amino acids 11-336; also called KITE subunit; source: recombinant, expressed in insect cells, purified as holo-complex (Superose 6 SEC), BS3-crosslinked
B3: Nse4 with HaloTag, kleisin subunit of the S. cerevisiae Smc5/6 holo-complex (natural protein)
chain: MSSTVISRKRRNSTVTEPDSSGETRKQKKSRSDEKSSSSKDGDPQLEFKVLQGYRDLESEMHKGRAQVTRTGDIGVAMDNLNAVDSLFNKVIGIKNNGLFAHDARAMVSISELAQISVRNLKFDDSRSMVNLENIVNSLKRYMLKEHFKLNNIAENRNDLTLAADEQSAADQQEESDGDIDRTPDDNHTDKATSSFKATSMRHSYLQQFSHYNEFSQFNWFRIGALYNTISKNAPITDHLMGPLSIEKKPRVLTQRRRNNDQVGEKITAEKITQHSLNSTQQETTPEQVKKCFKKLSKKLGPEGSINLFKFIIDPNSFSRSIENLFYTSFLIKEGKLLMEHDEEGLPTIKIKQSISHTDSRSKEIERQRRRAAHQNHIIFQMDMPTWRKLIKKYNITSPFLD
notes: Nse4, Saccharomyces cerevisiae; the model holds amino acids 40-124, 184-202, 213-245, 283-402; Density of the HaloTag attached to Nse4 was removed by particle subtraction, so the tag was on the protein on the grid; its end is told only for the yeast strain (C-terminal), not for the recombinant protein; source: recombinant, expressed in insect cells, purified as holo-complex (Superose 6 SEC), …
B4: Smc5 (Walker B mutant E1015Q), subunit of the S. cerevisiae Smc5/6 holo-complex (natural protein)
chain: MTSLIDLGRYVERTHHGEDTEPRSKRVKIAKPDLSSFQPGSIIKIRLQDFVTYTLTEFNLSPSLNMIIGPNGSGKSTFVCAVCLGLAGKPEYIGRSKKVEDFIKNGQDVSKIEITLKNSPNVTDIEYIDARDETIKITRIITRSKRRSDYLINDYQVSESVVKTLVAQLNIQLDNLCQFLSQERVEEFARLKSVKLLVETIRSIDASLLDVLDELRELQGNEQSLQKDLDFKKAKIVHLRQESDKLRKSVESLRDFQNKKGEIELHSQLLPYVKVKDHKEKLNIYKEEYERAKANLRAILKDKKPFANTKKTLENQVEELTEKCSLKTDEFLKAKEKINEIFEKLNTIRDEVIKKKNQNEYYRGRTKKLQATIISTKEDFLRSQEILAQTHLPEKSVFEDIDIKRKEIINKEGEIRDLISEIDAKANAINHEMRSIQRQAESKTKSLTTTDKIGILNQDQDLKEVRDAVLMVREHPEMKDKILEPPIMTVSAINAQFAAYLAQCVDYNTSKALTVVDSDSYKLFANPILDKFKVNLRELSSADTTPPVPAETVRDLGFEGYLSDFITGDKRVMKMLCQTSKIHTIPVSRRELTPAQIKKLITPRPNGKILFKRIIHGNRLVDIKQSAYGSKQVFPTDVSIKQTNFYQGSIMSNEQKIRIENEIINLKNEYNDRKSTLDALSNQKSGYRHELSELASKNDDINREAHQLNEIRKKYTMRKSTIETLREKLDQLKREARKDVSQKIKDIDDQIQQLLLKQRHLLSKMASSMKSLKNCQKELISTQILQFEAQNMDVSMNDVIGFFNEREADLKSQYEDKKKFVKEMRDTPEFQSWMREIRSYDQDTKEKLNKVAEKYEEEGNFNLSFVQDVLDKLESEIAMVNHDESAVTILDQVTAELRELEHTVPQQSKDLETIKAKLKEDHAVLEPKLDDIVSKISARFARLFNNVGSAGAVRLEKPKDYAEWKIEIMVKFRDNAPLKKLDSHTQSGGERAVSTVLYMIALQEFTSAPFRVVDQINQGMDSRNERIVHKAMVENACAENTSQYFLITPKLLTGLHYHEKMRIHCVMAGSWIPNPSEDPKMIHFGETSNYSFD
notes: Smc5, Saccharomyces cerevisiae; the model holds amino acids 35-390, 394-882, 884-1068; The complex was crosslinked with BS3; also called κ-SMC; source: recombinant, expressed in insect cells, purified as holo-complex (Superose 6 SEC), BS3-crosslinked

What all share (assay): cryo-EM structure; BS3-crosslinked six-subunit holo-complex, apo / non-liganded; fractions from Superose 6 diluted to 20 mM HEPES.NaOH pH 7.5, 50 mM NaCl, 0.5 mM TCEP, 0.1 mg/ml; maps at 10.8 Å (holo-complex), 8.53 Å (hinge/arm) and 6.5 Å (head-only); pseudo-atomic model built from homology and AlphaFold models
Holding throughout (conditions): both partners purified

The target of assay [1] is B4.
Assay [2] deals with T1, Smc6 (Walker B mutant E1048Q), subunit of the S. cerevisiae Smc5/6 holo-complex (S. cerevisiae, UniProt Q12749 1-1114, E1048Q).
T1 construct: Smc6, Saccharomyces cerevisiae; the model holds amino acids 74-213, 215-290, 292-370, 387-431, 436-805, 814-919, 922-1104; The complex was crosslinked with BS3; also called ν-SMC; source: recombinant, expressed in insect cells, purified as holo-complex (Superose 6 SEC), BS3-crosslinked
T1 sequence: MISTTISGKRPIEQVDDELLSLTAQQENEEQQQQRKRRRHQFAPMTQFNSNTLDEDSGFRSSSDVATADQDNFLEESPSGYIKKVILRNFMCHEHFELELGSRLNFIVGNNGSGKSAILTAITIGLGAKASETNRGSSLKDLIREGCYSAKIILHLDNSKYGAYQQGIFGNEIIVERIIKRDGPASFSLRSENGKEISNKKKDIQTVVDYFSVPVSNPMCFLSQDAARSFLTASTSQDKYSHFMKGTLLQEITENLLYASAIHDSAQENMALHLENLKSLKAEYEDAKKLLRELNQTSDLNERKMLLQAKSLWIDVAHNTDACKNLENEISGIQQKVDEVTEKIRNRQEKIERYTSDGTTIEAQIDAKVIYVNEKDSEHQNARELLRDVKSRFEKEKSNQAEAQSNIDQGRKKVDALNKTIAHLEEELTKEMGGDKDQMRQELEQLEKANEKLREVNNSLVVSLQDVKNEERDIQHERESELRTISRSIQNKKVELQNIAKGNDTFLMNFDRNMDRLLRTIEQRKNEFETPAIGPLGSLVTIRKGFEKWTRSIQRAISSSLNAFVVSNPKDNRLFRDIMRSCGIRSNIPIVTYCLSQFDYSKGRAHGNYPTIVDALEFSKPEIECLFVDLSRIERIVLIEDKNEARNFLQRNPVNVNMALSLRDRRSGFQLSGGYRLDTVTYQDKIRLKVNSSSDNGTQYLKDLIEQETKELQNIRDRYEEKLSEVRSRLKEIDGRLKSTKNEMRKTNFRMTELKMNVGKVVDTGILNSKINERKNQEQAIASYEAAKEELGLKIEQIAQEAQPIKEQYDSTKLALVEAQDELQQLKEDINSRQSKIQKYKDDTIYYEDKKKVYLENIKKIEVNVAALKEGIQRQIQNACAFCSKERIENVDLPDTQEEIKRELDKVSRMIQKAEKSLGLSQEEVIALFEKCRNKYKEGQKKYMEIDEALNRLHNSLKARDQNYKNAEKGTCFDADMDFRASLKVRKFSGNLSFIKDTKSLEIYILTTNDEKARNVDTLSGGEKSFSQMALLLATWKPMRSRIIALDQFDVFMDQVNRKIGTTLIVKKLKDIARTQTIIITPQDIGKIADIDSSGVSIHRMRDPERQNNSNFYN

For assay [3], the target named is B3.

For the molecule B1, the binding result in assay [1] and in assay [2] was “binds” in each case. In the case of B2, the binding result in assay [1] and in assay [3] was “binds” in each case. As for B3, the binding result in assay [1] and in assay [2] was “binds” each time.

Take B4: the binding result in assay [2] is listed as “binds”.

The record behind these values is article PMC9458440, “Cryo-EM structure of the Smc5/6 holo-complex” (Nucleic Acids Research, 2022).
